Experimental data published in patent publication US20220143148A1, “COMPOSITIONS AND METHODS FOR MODULATING CGRP SIGNALING TO REGULATE INTESTINAL INNATE LYMPHOID CELLS” (The Broad Institute, Inc., priority 2019, published 2022).

System: small intestinal immune cells
Assay: Droplet-based scRNA-seq of small intestinal immune cells (LP and PP), OVA vs PBS, clustering and differential expression
Format: in vivo, mouse
Description: To comprehensively characterize small intestinal immune cells, Applicants generated scRNA-Seq profiles for 58,067 immune cells collected from lamina propria (LP) and Peyer's patch (PP) regions at steady state and after induction of a type 2 inflammatory reaction to ovalbumin (OVA) (Brandt et al., 2003) (FIGS. 1A and 8A). To ensure sufficient representation of rare cells, Applicants combined a normalization strategy—removing by flow sorting either a portion of IgD+ naïve B cells, which are the most abundant cell type in PPs, or all CD19+ and CD3+ T cells (FIG. 8B, Methods)—with profiling of a sufficiently large number of cells number (P>0.99 to recover at least 15 cells from each cluster, Methods) by massively parallel scRNA-seq (Haber et al., 2017) (Methods). Applicants obtained 36,797 and 21,270 high quality cells passing initial filtering (Methods) from PP and LP regions, respectively.
Overall, Applicants annotated 27 cell subsets across the two compartments, spanning T cells, B cells, ILCs, dendritic cells (DCs), myeloid cells and stromal cells, in frequencies ranging from 0.07% to 14%. Briefly, Applicants first partitioned the cells from the PP regions by unsupervised clustering (Methods) into 46 clusters, retained the 97% of cells that were robustly assigned cell identities in each cluster (Methods), assigned the cells from the LP regions to the 46 clusters using a classifier (Methods), and visualized the data with scvis (Ding et al., 2018), a deep generative model-based method (FIGS. 1B and 8C, Methods). Next, Applicants identified genes that were differentially expressed between the cells in each cluster and the remaining cells (Table 1, Methods), as well as between pairs of clusters (Table 2), to elucidate identities of similar cell types/states. Applicants excluded from downstream analysis clusters mostly consisting of contaminants from epithelium, likely doublets, or cells with a small number of Unique Molecular Identifiers (UMIs) (FIGS. 1C and 8D), or lacking distinct markers (Methods). Altogether, Applicants retained 27 clusters spanning 85% of the cells and each associated with distinct marker genes (FIG. 8E, Methods).
To induce allergic reaction to OVA, 6 to 7 weeks old mice were sensitized twice, two weeks apart, with 50 μg of OVA plus 1 mg of aluminum potassium sulfate adjuvant via intraperitoneal injection. Two weeks later, mice were orally administered with 50 mg of OVA on every other day for a total of five times. 1 μg of α-CGRP peptide was administered simultaneously when indicated. Mice were deprived of food for 3-4 hours in cages with wood chip bedding for limiting antigen degradation in the stomach before each intragastric challenge.
Isolation of cells from Peyer's patches (PPs). Peyer's patches (PPs) were carefully dissected from the small intestine under a stereo microscope using a fine scissor, pierced once with a fine forcep. Tissues were digested in freshly made digestion buffer (RPMI-1640 containing 100 μg/ml Liberase™ and 50 μg/ml DNase I at 37° C. on a roto-mixer. After 15 min, tissues were very gently mixed using a 1 ml pipette. The supernatant was collected and added to ice-cold MACS buffer (pH 7.4; PBS plus 2% FCS and 2 mM EDTA). Pre-warmed (37° C.) fresh digestion buffer was added to the remaining tissues. After rotation at 37° C. for 15 min, the mixture was vigorously mixed using a 1 ml pipette for 1 min. Supernatants from the two steps were combined and passed through 70 μm filters and stained for FACS (below).
Isolation of cells from the lamina propria (LP). The small intestines were opened longitudinally and washed in ice-cold PBS. For scRNA-seq, roughly 0.5 cm of fragments from each of the distal, middle and proximal regions without visible PPs were collected. Epithelial cells were dissociated by tissue rotation in pre-warmed (37° C.) PBS containing 10 mM EDTA at 37° C. for 15 min, followed by additional incubation on ice for 15 min. Tissues were then shaken vigorously. […]

B1: OVA (protein, UniProt P01012 2-386, looked up)
Ovalbumin: GSIGAASMEFCFDVFKELKVHHANENIFYCPIAIMSALAMVYLGAKDSTRTQINKVVRFDKLPGFGDSIEAQCGTSVNVHSSLRDILNQITKPNDVYSFSLASRLYAEERYPILPEYLQCVKELYRGGLEPINFQTAADQARELINSWVESQTNGIIRNVLQPSSVDSQTAMVLVNAIVFKGLWEKAFKDEDTQAMPFRVTEQESKPVQMMYQIGLFRVASMASEKMKILELPFASGTMSMLVLLPDEVSGLEQLESIINFEKLTEWTSSNVMEERKIKVYLPRMKMEEKYNLTSVLMAMGITDVFSSSANLSGISSAESLKISQAVHAAHAEINEAGREVVGSAEAGVDAASVSEEFRADHPFLFCIKHIATNAVLFFGRCVSP
Tsc22d3 LN (average fold change) (PP, cluster ID 9, OVA vs PBS): 1.031 | Tubb5 LN (average fold change) (PP, cluster ID 9, OVA vs PBS): −0.244 | Uba52 LN (average fold change) (PP, cluster ID 9, OVA vs PBS): 0.365 | Ubb LN (average fold change) (PP, cluster ID 9, OVA vs PBS): −0.190 | Wdr89 LN (average fold change) (PP, cluster ID 9, OVA vs PBS): 0.469 | Zfp36l2 LN (average fold change) (PP, cluster ID 9, OVA vs PBS): 1.590 | 1110059E24Rik percentage of expressing cells in OVA-treated group (PP, cluster ID 10): 0.507 | Apobec1 percentage of expressing cells in OVA-treated group (PP, cluster ID 10): 0.807 | Basp1 percentage of expressing cells in OVA-treated group (PP, cluster ID 10): 0.755 | Btg1 percentage of expressing cells in OVA-treated group (PP, cluster ID 10): 0.985 | Cd47 percentage of expressing cells in OVA-treated group (PP, cluster ID 10): 0.602 | Crlf3 percentage of expressing cells in OVA-treated group (PP, cluster ID 10): 0.658 | Ddit4 percentage of expressing cells in OVA-treated group (PP, cluster ID 10): 0.296 | Dusp1 percentage of expressing cells in OVA-treated group (PP, cluster ID 10): 0.451 | Egln2 percentage of expressing cells in OVA-treated group (PP, cluster ID 10): 0.558 | Hspa8 percentage of expressing cells in OVA-treated group (PP, cluster ID 10): 0.975 | Igha percentage of expressing cells in OVA-treated group (PP, cluster ID 10): 0.405 | Napsa percentage of expressing cells in OVA-treated group (PP, cluster ID 10): 0.776 | Ppp1r21 percentage of expressing cells in OVA-treated group (PP, cluster ID 10): 0.165 | Rsrp1 percentage of expressing cells in OVA-treated group (PP, cluster ID 10): 0.722 | Sesn1 percentage of expressing cells in OVA-treated group (PP, cluster ID 10): 0.402 | Sh3glb2 percentage of expressing cells in OVA-treated group (PP, cluster ID 10): 0.187 | Tsc22d3 percentage of expressing cells in OVA-treated group (PP, cluster ID 10): 0.689 | Ttc7 percentage of expressing cells in OVA-treated group (PP, cluster ID 10): 0.244 | Uba52 percentage of expressing cells in OVA-treated group (PP, cluster ID 10): 0.985 | Zfp36l2 percentage of expressing cells in OVA-treated group (PP, cluster ID 10): 0.68 | 1110059E24Rik LN (average fold change) (PP, cluster ID 10, OVA vs PBS): 0.715 | Apobec1 LN (average fold change) (PP, cluster ID 10, OVA vs PBS): 0.309 | Basp1 LN (average fold change) (PP, cluster ID 10, OVA vs PBS): −0.516 | Btg1 LN (average fold change) (PP, cluster ID 10, OVA vs PBS): 0.438 | Cd47 LN (average fold change) (PP, cluster ID 10, OVA vs PBS): 0.638 | Crlf3 LN (average fold change) (PP, cluster ID 10, OVA vs PBS): 0.396 | Ddit4 LN (average fold change) (PP, cluster ID 10, OVA vs PBS): 0.864 | Dusp1 LN (average fold change) (PP, cluster ID 10, OVA vs PBS): 0.614 | Egln2 LN (average fold change) (PP, cluster ID 10, OVA vs PBS): 0.624 | Hspa8 LN (average fold change) (PP, cluster ID 10, OVA vs PBS): −0.286 | Igha LN (average fold change) (PP, cluster ID 10, OVA vs PBS): 0.162 | Napsa LN (average fold change) (PP, cluster ID 10, OVA vs PBS): 0.374 | Ppp1r21 LN (average fold change) (PP, cluster ID 10, OVA vs PBS): 1.045 | Rsrp1 LN (average fold change) (PP, cluster ID 10, OVA vs PBS): −0.187 | Sesn1 LN (average fold change) (PP, cluster ID 10, OVA vs PBS): 1.071 | Sh3glb2 LN (average fold change) (PP, cluster ID 10, OVA vs PBS): 0.383 | Tsc22d3 LN (average fold change) (PP, cluster ID 10, OVA vs PBS): 1.088 | Ttc7 LN (average fold change) (PP, cluster ID 10, OVA vs PBS): 1.338 | Uba52 LN (average fold change) (PP, cluster ID 10, OVA vs PBS): 0.287 | Zfp36l2 LN (average fold change) (PP, cluster ID 10, OVA vs PBS): 1.856 | Jund percentage of expressing cells in OVA-treated group (PP, cluster ID 11): 0.855 | Jund LN (average fold change) (PP, cluster ID 11, OVA vs PBS): −0.624 | 1600014C10Rik: percentage of expressing cells in OVA-treated group (cluster ID 4, PP): 0.185 | 2010300C02Rik: percentage of expressing cells in OVA-treated group (cluster ID 4, PP): 0.518 | 2310001H17Rik: percentage of expressing cells in OVA-treated group (cluster ID 4, PP): 0.214 | 4921524J17Rik: percentage of expressing cells in OVA-treated group (cluster ID 4, PP): 0.161 | Alyref: percentage of expressing cells in OVA-treated group (cluster ID 4, PP): 0.141 | Amd1: percentage of expressing cells in OVA-treated group (cluster ID 4, PP): 0.192 | Asb2: percentage of expressing cells in OVA-treated group (cluster ID 4, PP): 0.548 | Azin1: percentage of expressing cells in OVA-treated group (cluster ID 4, PP): 0.135 | Bin3: percentage of expressing cells in OVA-treated group (cluster ID 4, PP): 0.235 | Bzw1: percentage of expressing cells in OVA-treated group (cluster ID 4, PP): 0.321 | Cacybp: percentage of expressing cells in OVA-treated group (cluster ID 4, PP): 0.293 | Cd69: percentage of expressing cells in OVA-treated group (cluster ID 4, PP): 0.737 | Cdkn1a: percentage of expressing cells in OVA-treated group (cluster ID 4, PP): 0.256 | Clec2d: percentage of expressing cells in OVA-treated group (cluster ID 4, PP): 0.261 | Cwc25: percentage of expressing cells in OVA-treated group (cluster ID 4, PP): 0.12 | D16Ertd472e: percentage of expressing cells in OVA-treated group (cluster ID 4, PP): 0.175 | Dnaja1: percentage of expressing cells in OVA-treated group (cluster ID 4, PP): 0.705 | Dnajb9: percentage of expressing cells in OVA-treated group (cluster ID 4, PP): 0.18 | Egln3: percentage of expressing cells in OVA-treated group (cluster ID 4, PP): 0.172 | Fam46a: percentage of expressing cells in OVA-treated group (cluster ID 4, PP): 0.099 | Fibp: percentage of expressing cells in OVA-treated group (cluster ID 4, PP): 0.178 | Furin: percentage of expressing cells in OVA-treated group (cluster ID 4, PP): 0.382 | Gatad1: percentage of expressing cells in OVA-treated group (cluster ID 4, PP): 0.155 | Gcnt2: percentage of expressing cells in OVA-treated group (cluster ID 4, PP): 0.144 | Gimap3: percentage of expressing cells in OVA-treated group (cluster ID 4, PP): 0.536 | Git2: percentage of expressing cells in OVA-treated group (cluster ID 4, PP): 0.3 | Gnb1: percentage of expressing cells in OVA-treated group (cluster ID 4, PP): 0.419
